The values below come from CN113521276A (JIANGSU QUANXIN BIOMEDICAL CO LTD, dated 2021).

In this assay the target is T1, 人干扰素α受体1(IFNAR1) (human, UniProt P17181 28-436).
T1 construct: Soluble antigen run over captured antibody in the Biacore assay; also called 人IFNAR1; Human Interferon alpha/beta Receptor 1
T1 sequence: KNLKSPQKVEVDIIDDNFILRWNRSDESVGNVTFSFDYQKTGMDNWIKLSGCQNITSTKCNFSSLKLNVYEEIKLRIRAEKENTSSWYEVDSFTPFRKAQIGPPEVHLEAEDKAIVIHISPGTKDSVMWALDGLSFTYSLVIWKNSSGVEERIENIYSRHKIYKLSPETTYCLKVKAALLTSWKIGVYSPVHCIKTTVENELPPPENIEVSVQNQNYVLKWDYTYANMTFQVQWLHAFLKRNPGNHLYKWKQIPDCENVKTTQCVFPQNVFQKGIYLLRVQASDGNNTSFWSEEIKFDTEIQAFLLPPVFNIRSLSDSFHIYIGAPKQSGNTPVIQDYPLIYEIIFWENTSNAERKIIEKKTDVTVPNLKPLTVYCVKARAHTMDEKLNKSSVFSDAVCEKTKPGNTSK
Description: SPR, Biacore T200, antibody captured on Protein A chip, antigen in solution, 25℃, 1:1 model, mean of three runs.

B1: QX006N(HZD1203-45-IgG4.1) (antibody, V domains shown)
VH: EVQLVESGGGLVQPGGSLRLSCAASGFSLSSYYMTWVRQAPGKGLEWVSVINVYGGTYYASWAKGRFTISRDNSKNTLYLQMNSLRAEDTAVYYCAREDVAVYMAIDLWGQGTLVTVSS
VL: AIQMTQSPSSLSASVGDRVTITCQASQSISNQLSWYQQKPGKAPKLLIYDASSLASGVPSRFSGSRSGTKFTLTISSLQPEDFATYYCLGIYGDGADDGIAFGGGTKVEIK
notes: Humanised rabbit antibody from clone 1203#; also called 抗人干扰素α受体1(IFNAR1)单克隆抗体
With B1, the Kd came out at 0.108 nM, the koff was determined as 3.76e-05 s⁻¹ and the kon came to 347000 M⁻¹ s⁻¹.

The Kd is a measure of binding affinity in units of concentration. Broadly, the koff is the rate constant with which the complex falls apart. A high value points to fast dissociation. One may read the kon as the second-order rate constant of association. Low values mean slower complex formation, high ones faster complex formation.
